Data as given in article PMC11865592 (Nature Communications, 2025).

What was measured:
Settings in all cases: both partners purified
[1] = target: T1, non-glycosylated HEV GT 4 pORF2 P domain (Hepatitis E virus genotype 4, isolate …, UniProt Q9IVZ8, strain); test: SPR
T1 construct: also called HEV GT 4 P domain; source: Drosophila S2 cells, purified from cell lysates (Strep-Tactin XT, SEC); not shown: double strep tag, N-terminal, kept

[2] = target: T2, non-glycosylated HEV GT 1 pORF2 P domain (Hepatitis E virus genotype 1, isolate …, UniProt P33426, strain); test: SPR
T2 construct: also called HEV GT 1 P domain; source: Drosophila S2 cells, purified from cell lysates (Strep-Tactin XT, SEC); not shown: double strep tag, N-terminal, kept

[3] = target: T3, non-glycosylated HEV GT 2 pORF2 P domain (Hepatitis E virus genotype 2, isolate …, UniProt Q03500, strain); test: SPR
T3 construct: also called HEV GT 2 P domain; source: Drosophila S2 cells, purified from cell lysates (Strep-Tactin XT, SEC); not shown: double strep tag, N-terminal, kept

[4] = target: T4, non-glycosylated rat HEV pORF2 P domain (Rat hepatitis E virus, R68/DEU/2009 in …, strain); test: SPR
T4 construct: also called rat HEV P domain; source: Drosophila S2 cells, purified from cell lysates (Strep-Tactin XT, SEC); not shown: double strep tag, N-terminal, kept

[5] = target: T5, non-glycosylated rat HEV pORF2 P domain (Rat hepatitis E virus, R68/DEU/2009 in …); test: SPR
T5 construct: not shown: double strep tag, N-terminal, kept

[6] = target: T5, non-glycosylated rat HEV pORF2 P domain; test: ELISA; plates coated with 100 ng P domain per well in PBS overnight at 4 °C; antibody (IgG) at 2 μg/ml, 1 h at room temperature; HRP-conjugated goat anti-human antibody
[7] = target: T6, non-glycosylated HEV GT 2 pORF2 P domain (Hepatitis E virus genotype 2, isolate …, UniProt Q03500, strain); test: as above
T6 construct: also called GT 2 P domain; not shown: double strep tag, N-terminal, kept

[8] = target: T7, non-glycosylated HEV GT 3 pORF2 P domain dimer (amino acids 456-660), expressed in the cytosol (Hepatitis E virus genotype 3, isolate …, strain); test: as above
T7 construct: not shown: double strep tag, N-terminal, kept

[9] = target: T8, non-glycosylated HEV GT 4 pORF2 P domain (Hepatitis E virus genotype 4, isolate …, UniProt Q9IVZ8, strain); test: as above
T8 construct: also called GT 4 P domain; not shown: double strep tag, N-terminal, kept

[10] = target: T9, non-glycosylated HEV GT 3 pORF2 P domain (Hepatitis E virus genotype 3, …); test: SPR
T9 construct: also called non-glycosylated GT 3 P domain; HEV GT3 P domain; not shown: double strep tag, N-terminal, kept

[11] = target: T10, glycosylated HEV GT 3 pORF2 P domain dimer (amino acids 456-660), secreted, carrying a glycan at N562 (Hepatitis E virus genotype 3, isolate …, strain); test: ELISA; plates coated with 100 ng P domain per well in PBS overnight at 4 °C; antibody (IgG) at 2 μg/ml, 1 h at room temperature; HRP-conjugated goat anti-human antibody
T10 construct: not shown: double strep tag, N-terminal, kept

[12] = target: T10, glycosylated HEV GT 3 pORF2 P domain …; test: SPR
[13] = target: T7, non-glycosylated HEV GT 3 pORF2 P …; test: SPR

B1: scFv p60.1 (scFv, V domains shown)
VH: EVQLQQSGPGLVKPSQTLSLICAISGDSVSTINAAWNWIRQSPSRGLEWLGRTYYRSKWYHEYATSVQGRIIITPDTSKNQFSLQLNSVTPEDSAVYFCARDRGPTPFDFWGQGTLVTVSS
VL: DIQMTQSPSSLSASVGDSVTITCRANQSISRSLNWYQQQPGKAPNLLIYAASHLHSGVSSRFSGSGSGADFALTISSLQPEDFATYHCQQSFVTPFTFGPGTKVDLK
notes: also called bnAb p60.1; nAb p60.1
Kd [1]: 0.0382 nM
koff [1]: 5.14e-05 s⁻¹
Kd [2]: 0.0238 nM
koff [2]: 2.56e-05 s⁻¹
Kd [3]: 0.128 nM
koff [3]: 8.16e-05 s⁻¹
Kd [4]: 4930 nM
koff [4]: 0.456 s⁻¹

B2: p60.1 scFv (SPR analyte) (scFv, V domains shown)
VH: EVQLQQSGPGLVKPSQTLSLICAISGDSVSTINAAWNWIRQSPSRGLEWLGRTYYRSKWYHEYATSVQGRIIITPDTSKNQFSLQLNSVTPEDSAVYFCARDRGPTPFDFWGQGTLVTVSS
VL: DIQMTQSPSSLSASVGDSVTITCRANQSISRSLNWYQQQPGKAPNLLIYAASHLHSGVSSRFSGSGSGADFALTISSLQPEDFATYHCQQSFVTPFTFGPGTKVDLK
notes: also called scFv-p60.1
fold lower affinity than to the other four P domains [5]: ~1000 fold

B3: murine bnAb 8G12 (antibody, V domains shown)
VH: QLQQSGPELVKPGASVKISCKASGYTFTDFNMHWVKQSHGKSLEWIGYIYPYNGITGQNQKFKSKATLTVDNSSSSAYMELRSLTSEDSAVYYCARERFGVGNNYAWFTYWGQGTLVTVSS
VL: DIQMTQSPASLSVSVGETVTITCRASENIYSNLVWYQQKQGKSPQVLVYAATNLPDGVPSRFSGSGSGTQYSLKINSLQSEDSGSYYCQHFWETPFTFGSGTKLEIK
notes: also called control bnAb 8G12
binding result [6]: no binding
binding result [7]: binds
binding result [8]: binds
binding result [9]: binds

B4: scFv p60.15 (scFv, V domains shown)
VH: EVQLVQSGAELKKPGESLRISCKGSGYDFANYWIGWVRQMPGKGLEWMGIIYPRDSDIRYSPSFQGQVTISADKSISTAYLQLSSLKASDTAMYYCARHLRGLRLGELFPFDYWGQGTLVTVSS
VL: AIQLTQSPSSLSASVGDSVTITCRASQDIFSYLAWYQQKPGKAPKLLIYAASTLQSGVPSRFSGSGSGTDFTLTISSLQPEDFATYYCQQLNRYPFAFGPGTKVDIK
notes: also called bnAb p60.15; nAb p60.15
Kd [10]: 0.166 nM
koff [10]: 5.18e-05 s⁻¹

B5: p60.15 IgG1 (antibody, V domains shown)
VH: EVQLVQSGAELKKPGESLRISCKGSGYDFANYWIGWVRQMPGKGLEWMGIIYPRDSDIRYSPSFQGQVTISADKSISTAYLQLSSLKASDTAMYYCARHLRGLRLGELFPFDYWGQGTLVTVSS
VL: AIQLTQSPSSLSASVGDSVTITCRASQDIFSYLAWYQQKPGKAPKLLIYAASTLQSGVPSRFSGSGSGTDFTLTISSLQPEDFATYYCQQLNRYPFAFGPGTKVDIK
notes: also called nAb p60.15; bnAb p60.15
binding result [6]: no binding (tested: 2 μg/ml)

B6: scFv p60.12 (scFv, V domains shown)
VH: QVQLVQSGAEVKKPGSSVKVSCKASGDTFSSYVISWVRQAPGQGLEWMGGIIPIIGTANYAPKFQDTVTITADKSTNTVYMEMRSLRSEDTAVYYCASNVQLQRRGNWFDPWGQGTLVTVSS
VL: QSALTQPASVSGSPGQSITISCTGTSSDIGDYNFVSWYQQHPGKAPKLMIFDVTNRPSGVSNRFSGSKSGNTASLTISGLQVEDEADYYCSSYTSTNTPVVFGGGTKLTVL
notes: also called bnAb p60.12; nAb p60.12
Kd [1]: 8.75 nM
koff [1]: 0.000609 s⁻¹
Kd [2]: 3.29 nM
koff [2]: 0.000325 s⁻¹
Kd [3]: 0.509 nM
koff [3]: 2.96e-05 s⁻¹
Kd [4]: 5590 nM
koff [4]: 0.246 s⁻¹

B7: p60.12 scFv (SPR analyte) (scFv, V domains shown)
VH: QVQLVQSGAEVKKPGSSVKVSCKASGDTFSSYVISWVRQAPGQGLEWMGGIIPIIGTANYAPKFQDTVTITADKSTNTVYMEMRSLRSEDTAVYYCASNVQLQRRGNWFDPWGQGTLVTVSS
VL: QSALTQPASVSGSPGQSITISCTGTSSDIGDYNFVSWYQQHPGKAPKLMIFDVTNRPSGVSNRFSGSKSGNTASLTISGLQVEDEADYYCSSYTSTNTPVVFGGGTKLTVL
fold lower affinity than to the other four P domains [5]: ~1000 fold

B8: scFv p61.15 (scFv, V domains shown)
VH: QVQLVQSGAEVKKPGASVKVSCKASGYTFTNYFMHWVRQAPGQGLEWMGVFNPRGGSTTYAQKFQGRITMTSDPSTSTVYMELTSLTSEDTAMYYCARMGSVTGPVGHRWLDPWGQGTLVTVSS
VL: EIVLTQSPATLSLSPGERAALSCRASQSVDTYLAWYQQKPGQAPRLLIYDASTRAPGIPARFSGSGSGTDFTLTISSLEPEDFAVYYCQQRYNWPPITFGQGTRLEIK
notes: also called bnAb p61.15; nAb p61.15
Kd [10]: 0.0816 nM
koff [10]: 2.56e-05 s⁻¹
Kd [1]: 0.154 nM
koff [1]: 0.000142 s⁻¹
Kd [2]: 1.51 nM
koff [2]: 0.000604 s⁻¹
Kd [3]: 0.896 nM
koff [3]: 0.000585 s⁻¹

B9: p61.15 IgG1 (antibody, V domains shown)
VH: QVQLVQSGAEVKKPGASVKVSCKASGYTFTNYFMHWVRQAPGQGLEWMGVFNPRGGSTTYAQKFQGRITMTSDPSTSTVYMELTSLTSEDTAMYYCARMGSVTGPVGHRWLDPWGQGTLVTVSS
VL: EIVLTQSPATLSLSPGERAALSCRASQSVDTYLAWYQQKPGQAPRLLIYDASTRAPGIPARFSGSGSGTDFTLTISSLEPEDFAVYYCQQRYNWPPITFGQGTRLEIK
notes: also called nAb p61.15; bnAb p61.15
binding result [6]: no binding (tested: 2 μg/ml)
binding result [11]: binds
binding result [8]: binds

B10: p61.15 scFv (SPR analyte) (scFv, V domains shown)
VH: QVQLVQSGAEVKKPGASVKVSCKASGYTFTNYFMHWVRQAPGQGLEWMGVFNPRGGSTTYAQKFQGRITMTSDPSTSTVYMELTSLTSEDTAMYYCARMGSVTGPVGHRWLDPWGQGTLVTVSS
VL: EIVLTQSPATLSLSPGERAALSCRASQSVDTYLAWYQQKPGQAPRLLIYDASTRAPGIPARFSGSGSGTDFTLTISSLEPEDFAVYYCQQRYNWPPITFGQGTRLEIK
notes: also called scFv-p61.15
binding result [12]: binds
binding result [13]: binds
